According to FireProtDB (doi:10.1016/0022-2836(91)90725-l):

Conditions: Bacillus amyloliquefaciens; pH 6.3; 25 °C; Urea; Fluorescence; MES 1.00 M; NaCl 613 mM; reversible: yes; whole UniProt chain shown

B1: Ribonuclease wild type, P00648 (protein)
chain: MMKMEGIALKKRLSWISVCLLVLVSAAGMLFSTAAKTETSSHKAHTEAQVINTFDGVADYLQTYHKLPDNYITKSEAQALGWVASKGNLADVAPGKSIGGDIFSNREGKLPGKSGRTWREADINYTSGFRNSDRILYSSDWLIYKTTDHYQTFTKIR
In the case of B1, the denaturant m value is reported as 2.22 kcal/mol/M, the “denaturant midpoint (higher = more stable)” value is reported as 4.57 M and the unfolding free energy is reported as 10.2 kcal/mol.
